Reference: the Immune Epitope Database (IEDB)

Assays:
HLA-B*15:01 = test: IEDB peptide-MHC binding, purified MHC/competitive/fluorescence; filed as Kd, often an IC50 or EC50 that approximates it; ≥ and ≤ were set here for values at or beyond the usual limits of such assays
HLA-A*01:01 [1] = test: IEDB peptide-MHC binding, purified MHC/direct/fluorescence; filed as Kd, often an IC50 or EC50 that approximates it; ≥ and ≤ were set here for values at or beyond the usual limits of such assays; details: source organism: Mycobacterium tuberculosis
HLA-B*40:01 [2] = test: as above; details: source organism: Mycobacterium tuberculosis
HLA-B*58:01 = test: as above; details: source organism: Mycobacterium tuberculosis
HLA-B*48:01 = test: as above; details: source organism: Mycobacterium tuberculosis
HLA-B*57:01 = test: as above; details: source organism: Mycobacterium tuberculosis
HLA-A*69:01 = test: as above; details: source organism: Mycobacterium tuberculosis
HLA-B*38:01 = test: as above; details: source organism: Mycobacterium tuberculosis str. Haarlem
HLA-B*15:17 = test: as above; details: source organism: Mycobacterium tuberculosis
HLA-B*46:01 [3] = test: as above; details: source organism: Mycobacterium tuberculosis
HLA-B*27:05 [4] = test: as above; details: source organism: Mycobacterium tuberculosis
HLA-A*02:01 = test: as above; details: source organism: Mycobacterium tuberculosis
HLA-B*18:01 [5] = test: as above; details: source organism: Mycobacterium tuberculosis
HLA-B*51:01 [6] = test: as above; details: source organism: Mycobacterium tuberculosis
HLA-A*11:01 [7] = test: as above; details: source organism: Mycobacterium tuberculosis
HLA-A*31:01 = test: as above; details: source organism: Mycobacterium tuberculosis
HLA-A*03:01 [8] = test: as above; details: source organism: Mycobacterium tuberculosis
HLA-A*01:01 [9] = test: IEDB peptide-MHC binding, purified MHC/competitive/fluorescence; filed as Kd, often an IC50 or EC50 that approximates it; ≥ and ≤ were set here for values at or beyond the usual limits of such assays; details: source organism: Cryptosporidium parvum Iowa II
HLA-B*40:01 [10] = test: as above; details: source organism: Cryptosporidium parvum Iowa II
HLA-B*44:02 = test: as above; details: source organism: Cryptosporidium parvum Iowa II
HLA-B*08:01 = test: as above; details: source organism: Cryptosporidium parvum Iowa II
HLA-B*53:01 = test: as above; details: source organism: Cryptosporidium parvum Iowa II
HLA-A*24:03 = test: as above; details: source organism: Cryptosporidium parvum Iowa II
HLA-B*27:03 = test: as above; details: source organism: Cryptosporidium parvum Iowa II
HLA-A*23:01 = test: as above; details: source organism: Cryptosporidium parvum Iowa II
HLA-A*66:01 = test: as above; details: source organism: Cryptosporidium parvum Iowa II
HLA-A*30:02 = test: as above; details: source organism: Cryptosporidium parvum Iowa II
HLA-B*14:02 = test: as above; details: source organism: Cryptosporidium parvum Iowa II
HLA-A*26:01 = test: as above; details: source organism: Cryptosporidium parvum Iowa II
HLA-B*46:01 [11] = test: as above; details: source organism: Cryptosporidium parvum Iowa II
HLA-A*29:02 = test: as above; details: source organism: Cryptosporidium parvum Iowa II
HLA-B*27:05 [12] = test: as above; details: source organism: Cryptosporidium parvum Iowa II
HLA-B*18:01 [13] = test: as above; details: source organism: Cryptosporidium parvum Iowa II
HLA-B*39:01 = test: as above; details: source organism: Cryptosporidium parvum Iowa II
HLA-A*68:02 = test: as above; details: source organism: Cryptosporidium parvum Iowa II
HLA-B*51:01 [14] = test: as above; details: source organism: Cryptosporidium parvum Iowa II
HLA-B*07:02 = test: as above; details: source organism: Cryptosporidium parvum Iowa II
HLA-A*11:01 [15] = test: as above; details: source organism: Cryptosporidium parvum Iowa II
HLA-A*03:01 [16] = test: as above; details: source organism: Cryptosporidium parvum Iowa II
HLA-A*30:01 = test: as above; details: source organism: Cryptosporidium parvum Iowa II
HLA-C*12:03 = test: IEDB peptide-MHC binding, purified MHC/direct/fluorescence; filed as Kd, often an IC50 or EC50 that approximates it; ≥ and ≤ were set here for values at or beyond the usual limits of such assays; details: source organism: Cryptosporidium parvum Iowa II

Measured: Kd

VPRENATAF
≥ 20 µM: HLA-B*15:01; source organism: Mycobacterium tuberculosis variant bovis BCG str. Pasteur 1173P2 | HLA-A*01:01 [1] | HLA-B*40:01 [2] | HLA-B*58:01 | HLA-B*48:01 | HLA-B*57:01 | HLA-A*69:01 | HLA-B*38:01 | HLA-B*15:17 | HLA-B*27:05 [4] | HLA-A*02:01 | HLA-B*51:01 [6] | HLA-A*11:01 [7] | HLA-A*31:01 | HLA-A*03:01 [8]
15.9 µM: HLA-B*46:01 [3]
0.598 µM: HLA-B*18:01 [5]

FTWQHNYYL
0.149 µM: HLA-A*23:01
0.041 µM: HLA-A*24:03
≥ 20 µM: HLA-B*27:03 | HLA-B*15:01; source organism: Cryptosporidium parvum Iowa II | HLA-B*14:02 | HLA-A*26:01 | HLA-B*46:01 [11] | HLA-B*18:01 [13] | HLA-B*39:01 | HLA-B*51:01 [14] | HLA-A*03:01 [16]
0.463 µM: HLA-A*01:01 [9]
≤ 0.001 µM: HLA-A*68:02
≥ 5 µM: HLA-B*40:01 [10] | HLA-B*44:02 | HLA-B*08:01 | HLA-B*53:01 | HLA-A*66:01 | HLA-A*30:02 | HLA-B*27:05 [12] | HLA-B*07:02 | HLA-A*11:01 [15] | HLA-A*30:01
0.0509 µM: HLA-A*29:02
0.335 µM: HLA-C*12:03
